Measured values taken from publication PMC10649158.

Molecular target: Canavalia villosa seed lectin (Cvill) (Canavalia villosa)
Assay: crystal structure; Cvill with alpha-methyl-D-mannopyranoside; 17.5% PEG1000, 0.1 M potassium phosphate citrate pH 4.2, 200 mM lithium sulfate, room temperature; space group I222, one monomer per asymmetric unit; tetramer formed by the crystal's 222 symmetry, dimers and tetramers predicted with PISA

stoichiometry N: 4
Substance: Canavalia villosa seed lectin (Cvill) (natural protein)
